Measured values from PMC7615342.

Tests used:
[1] = Flow cytometry, surface versus total PD-1 staining; settings: glycan changed form; control: sgNT Tregs
[2] = Flow cytometry, PD-1+ frequency and MFI, ex vivo Tregs; settings: glycan changed form; control: DMSO-treated Tregs

Protein | localisation_or_trafficking [1] | expression_or_secretion [2]
PD-1: sgSlc35c1 (protein) parent chain: MWVRQVPWSFTWAVLQLSWQSGWLLEVPNGPWRSLTFYPAWLTVSEGANATFTCSLSNWSEDLMLNWNRLSPSNQTEKQAAFCNGLSQPVQDARFQIIQLPNRHDFHMNILDTRRNDSGIYLCGAISLHPKAKIEESPGAELVVTERILETSTRYPSPSPKPEGRFQGMVIGIMSALVGIPVLLLLAWALAVFCSTSMSEARGAGSKDDTLKEEPSAAPVPSVAYEELDFQGREKTPELPTACVHTEYATIVFTEGLGASAMGRRGSADGLQGPRPPRHEDGHCSWPL | decreases | 
PD-1: 2FF 100 μM, 6 days (protein) parent chain: MWVRQVPWSFTWAVLQLSWQSGWLLEVPNGPWRSLTFYPAWLTVSEGANATFTCSLSNWSEDLMLNWNRLSPSNQTEKQAAFCNGLSQPVQDARFQIIQLPNRHDFHMNILDTRRNDSGIYLCGAISLHPKAKIEESPGAELVVTERILETSTRYPSPSPKPEGRFQGMVIGIMSALVGIPVLLLLAWALAVFCSTSMSEARGAGSKDDTLKEEPSAAPVPSVAYEELDFQGREKTPELPTACVHTEYATIVFTEGLGASAMGRRGSADGLQGPRPPRHEDGHCSWPL |  | decreases
